Source: US20120094356A1

Molecular target: trypsin
Assay: trypsin inhibition assay, 10 nM each, chromogenic substrate; Ka calculated

human growth hormone/alpha-1 antitrypsin fusion [T109wt: α1AT/hGH]
Ka: 7.5e+08 M⁻¹
